Results from article PMC2572730, “Structural Basis for the Recognition of Histone H4 by the Histone-Chaperone RbAp46” (Structure(London, England:1993), 2008).

What was measured:
[1] = biological target: T1, RbAp46 (Homo sapiens, UniProt Q16576); assay: Reciprocal pull-down of 35S-labeled RbAp46 with GST-histone H4 (1–48) mutants; format: binding; conditions: autoradiogram, 300 mM NaCl, 20 mM Tris pH 8.0, 5 mM DTT, 0.1% (v/v) NP-40
T1 construct: His-tag (cleaved yes); made in house; host or cells: insect cells (baculovirus)
Source text: Figure 2 Histone H4 Recognition by the RbAp46-Binding Pocket (A) Electrostatic surface potential of RbAp46 contoured and color coded at −91 kT (red) and +91 kT (blue). […] The histone H4 peptide is shown as a stick model. The histone H4-binding pocket in RbAp46 is mainly formed by the negatively charged PP loop (which terminates in Pro-362 and Pro-363) and a hydrophobic surface on the N-terminal α helix (helix 1). The interaction of histone H4 residues (Gln-27, Lys-31, Ile-34, Arg-35, Arg-36, Leu-37, Arg-39, and Arg-40) is shown. (B) Detailed view showing the interactions of the hydrophobic Ile-34 and Leu-37 histone H4 residues with Phe-29 and Leu-30 in helix 1 of RbAp46, as well as the positively charged Arg-36, Arg-39, and Arg-40 histone H4 residues with the backbone carbonyl groups in the PP loop and a cluster of acidic residues (Glu-356, Asp-357, and Asp-360) in RbAp46. […] In each experiment, the input lane contains 30% of the ^35S-labeled RbAp46 protein used in each of the pull-down assays. The experiments were carried out in 300 mM NaCl, 20 mM Tris (pH 8.0), 5 mM DTT, and 0.1% (v/v) NP-40.
Recombinant histone H4 and RbAp46 proteins were expressed and purified as described previously ([Verreault et al., 1998; Berger et al., 2004]). Detailed procedures for the generation of the RbAp46/histone H4 peptide and recombinant histone H4 complexes can be found in the Supplemental Data. Recombinant full-length (Xenopus lavis) histones H3 and H4 were expressed, purified, and refolded as described ([Luger et al., 1997]). For the binding experiments, histones H3/H4 and lysozyme (Sigma) were crosslinked to DynaBeads (Dynal Biotech) according to the manufacturer's recommendations. RbAp46 and histone H4 mutants were generated by using the QuikChange Site-Directed Mutagenesis kit (Stratagene). The RbAp46 mutants were expressed by using a Rabbit Reticulocyte Cell Free system (Promega).

[2] = tested on: RbAp46 or RbAp48; conditions: ref Verreault et al., 1998; cited from earlier work
[3] = biological target: T1, RbAp46; assay: BS3 chemical crosslinking with RbAp46; format: binding; conditions: BS3 crosslinker; 1.1 M NaCl, 20 mM HEPES pH 7.5, 10 mM DTT; ∼10 μM protein; room temperature 30 min; NuPAGE, Coomassie and anti-H3/anti-H4 immunoblot
Source text: Figure 4 Interaction of Histones H3 and H4 with RbAp46 (A) Comparison of chemical crosslinking of histones H3 and H4 in the absence and presence of RbAp46. Three different 4%–12% NuPAGE gels were either (i) stained with Coomasie blue or blotted with (ii) anti-histone H4 or (iii) anti-histone H3 antibodies. By themselves, histones H3 and H4 appear to form a H3/H4 heterodimer (∼25 kDa), an H3_2 homodimer (∼30 kDa), and an H3_2/H4_2 heterotetramer (∼50 kDa), indicated by arrowheads. In the presence of RbAp46, two bands, which both contain histones H3 and H4 (also indicated by arrowheads), can be seen in positions roughly corresponding to the interaction of RbAp46 with histone H3/H4 dimers and tetramers (∼65–75 kDa). […] The fractions were collected and analyzed on 4%–12% NuPAGE gels.
RbAp46/H3/H4 crosslinking was performed by using the BS^3 crosslinker (Pierce) in 1.1 M NaCl, 20 mM HEPES (pH 7.5), and 10 mM DTT. Freshly prepared BS^3 stock solution, 3% (w/v), was diluted 1/5, 1/10, 1/20, 1/50, and 1/100 with distilled water, and 1 μl of the resulting solution was mixed with 10 μl of ∼10 μM RbAp46, recombinant histone H3/H4, or RbAp46/H3/H4 prior to incubation at room temperature for 30 min. […] The proteins were analyzed on separate 4%–12% NuPAGE gels, one for Coomassie blue staining and one for each Western blot with either anti-histone H3 (Abcam) or anti-histone H4 (A.V.) antibodies.

T1 sequence (Q16576 whole entry): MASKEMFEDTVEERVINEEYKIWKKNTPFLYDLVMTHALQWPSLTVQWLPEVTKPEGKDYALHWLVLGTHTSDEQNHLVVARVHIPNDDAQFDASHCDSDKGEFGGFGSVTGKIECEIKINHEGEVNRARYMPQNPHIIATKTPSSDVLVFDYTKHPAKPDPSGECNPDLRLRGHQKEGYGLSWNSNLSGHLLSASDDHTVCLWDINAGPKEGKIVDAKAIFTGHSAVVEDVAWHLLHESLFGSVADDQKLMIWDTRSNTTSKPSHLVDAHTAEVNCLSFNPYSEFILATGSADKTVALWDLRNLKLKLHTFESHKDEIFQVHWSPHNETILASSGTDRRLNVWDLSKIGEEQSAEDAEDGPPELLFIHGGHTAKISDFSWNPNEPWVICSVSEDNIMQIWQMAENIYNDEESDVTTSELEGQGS

Effect of histone H4 mutation on binding to RbAp46 [1]	Substance	also measured
disrupt the binding	L37D + R39V + R40N: GST-histone H4 (1–48) mutated in residues interacting with both helix 1 and the charged PP loop	
disrupt the binding	I34T + L37D + R35S: GST-histone H4 (1–48) mutated in residues interacting with both helix 1 and the charged PP loop	
disrupt the binding	R39V + R40N: GST-histone H4 (1–48) mutated in residues interacting with the charged PP loop	
	residues 15–41 of histone H4: residues 15–41 of histone H4, sufficient for recognition by RbAp46 or RbAp48 (earlier studies)	Recognition by RbAp46 or RbAp48 [2]: sufficient for recognition by either RbAp46 or RbAp48
	lysozyme: positively charged lysozyme protein (Sigma), negative control	Crosslinked species with RbAp46 [3]: no crosslinked species
